Reference: patent publication US20260258084A1, “New Peptides as Selective IL-23 Receptor Antagonists” (Sanofi, priority 2022, published 2026)
Each block holds one binder with its values, some of them ahead of it. Starred links: 1 amine or outer side, 2 acyl side, 3 side chain; linkers in the order of their positions; H or OH if unused. Positions of bridges follow the written chain, without caps; N, C: chain ends. Non-standard residues stand in square brackets, D forms with d. No end group written: not given here. Yde = (2S)-2-amino-3-[4-[2-(dimethylamino)ethoxy]phenyl]propanoic acid, CN(C)CCOc1ccc(C[C@H](N[*:1])C(=O)[*:2])cc1; NdmK = (2S)-6-amino-2-(dimethylamino)hexanoic acid, CN(C)[C@@H](CCCCN[*:3])C(=O)[*:2]; Trp(7-Me) = Cc1cccc2c(C[C@H](N)C(=O)O)c[nH]c12; Tyr(Me) = COc1ccc(C[C@H](N[*:1])C(=O)[*:2])cc1; αMeLys(Me2) = CN(C)CCCC[C@](C)(N)C(=O)O; 2Nal = N[C@@H](Cc1ccc2ccccc2c1)C(=O)O; εLys = N[C@@H](CCCCN[*:1])C(=O)[*:2]; NMe5Ava = CN(CCCCC(=O)[*:2])[*:1]; 3Pal = N[C@@H](Cc1cccnc1)C(=O)O; αMeL = CC(C)C[C@](C)(N)C(=O)O; Thp = NC1(C(=O)O)CCOCC1; Aib = CC(C)(N)C(=O)O; Ava = NCCCCC(=O)O; Sar = CNCC(=O)O

Key:
[1] = target: T1, IL-23 receptor on the surface of HEK-Blue IL-23 cells (UniProt Q5VWK5 24-629, limits assumed); experiment: cell-based or functional assay
T1 sequence (looked up): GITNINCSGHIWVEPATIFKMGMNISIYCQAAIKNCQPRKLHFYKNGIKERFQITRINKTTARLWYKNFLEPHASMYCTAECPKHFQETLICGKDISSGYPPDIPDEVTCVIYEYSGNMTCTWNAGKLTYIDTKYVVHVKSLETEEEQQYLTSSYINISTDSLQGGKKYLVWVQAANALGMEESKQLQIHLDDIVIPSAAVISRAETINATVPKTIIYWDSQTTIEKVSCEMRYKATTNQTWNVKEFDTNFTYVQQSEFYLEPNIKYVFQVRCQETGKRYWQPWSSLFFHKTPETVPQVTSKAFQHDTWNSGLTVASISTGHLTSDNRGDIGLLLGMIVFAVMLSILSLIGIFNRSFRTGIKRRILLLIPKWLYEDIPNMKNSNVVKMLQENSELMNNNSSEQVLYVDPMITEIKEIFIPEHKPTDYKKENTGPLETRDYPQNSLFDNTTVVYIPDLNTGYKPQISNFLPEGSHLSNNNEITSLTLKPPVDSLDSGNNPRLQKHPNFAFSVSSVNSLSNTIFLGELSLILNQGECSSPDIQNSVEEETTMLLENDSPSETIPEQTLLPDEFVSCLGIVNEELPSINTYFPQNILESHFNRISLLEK

[2] = target: T2, recombinant human IL-23R-Fc chimera (human, UniProt Q5VWK5 24-353); experiment: competition ELISA: IL-23R-Fc binding to coated human IL23
T2 construct: used at 0.1 µg/ml in the ELISA; not shown: Fc part of the chimera; detected with goat anti-hu-IgG1-HRP a
T2 sequence (looked up): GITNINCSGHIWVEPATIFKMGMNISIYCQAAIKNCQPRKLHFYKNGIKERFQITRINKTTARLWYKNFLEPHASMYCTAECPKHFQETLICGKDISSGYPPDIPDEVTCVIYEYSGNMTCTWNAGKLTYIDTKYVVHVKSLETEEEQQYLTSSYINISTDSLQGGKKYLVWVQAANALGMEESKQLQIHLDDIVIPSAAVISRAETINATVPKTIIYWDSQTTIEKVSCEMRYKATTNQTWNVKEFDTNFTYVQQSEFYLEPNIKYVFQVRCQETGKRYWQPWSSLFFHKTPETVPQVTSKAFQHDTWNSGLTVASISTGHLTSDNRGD
Experimental: Antagonism of compounds for human interleukin-23 receptor antagonists, was determined by an ELISA assay.
A 384-well plate was coated with 50 μl/well of human IL23 at a final concentration of […] and incubated overnight at 4° C. The wells were washed 3 times with 80 μl wash buffer and blocked with 80 μl blocking buffer for 60 minutes at room temperature and washed again. 20 μl of serially diluted test peptides was added to each well and subsequently 20 μl of recombinant human IL-23R-Fc chimera at final concentration of 0.1 μg/ml. The plate was incubated for 60 minutes at room temperature. After the wells were washed, bound IL23R-Fc was detected with goat anti-hu-IgG1-HRP antibody. Signals were visualized with QuantaBlu Fluorogenic Peroxidase Substrate.

B1: Compound of SEQ ID NO: 65 (peptide)
peptide: [Ava]CNT[Trp(7-Me)]K(Ac)C[Yde][2Nal][αMeL]EN[3Pal][Sar]-NH2
modifications: lactam N-11; disulfide 2-7
SMILES: CC(=O)NCCCC[C@@H]1NC(=O)[C@H](Cc2c[nH]c3c(C)cccc23)NC(=O)[C@H]([C@@H](C)O)NC(=O)[C@H](CC(N)=O)NC(=O)[C@@H]2CSSC[C@H](NC1=O)C(=O)N[C@@H](Cc1ccc(OCCN(C)C)cc1)C(=O)N[C@@H](Cc1ccc3ccccc3c1)C(=O)N[C@@](C)(CC(C)C)C(=O)N[C@H](C(=O)N[C@@H](CC(N)=O)C(=O)N[C@@H](Cc1cccnc1)C(=O)N(C)CC(N)=O)CCC(=O)NCCCCC(=O)N2
- pSTAT3 (nM) [1]: 0.23 nM
- IC50 [2]: 0.37 nM

Binder: [NMe5Ava]C[NdmK][Trp(7-Me)]K(Ac)C[Yde][2Nal][αMeLys(Me2)]EN[3Pal][Sar]-NH2 (lactam N-10; disulfide 2-6) [Compound of SEQ ID NO: 61]
- pSTAT3 (nM) [1]: 4.4 nM
- IC50 [2]: 0.36 nM

B3: Compound of SEQ ID NO: 28 (peptide)
peptide: [Ava]C[εLys](Ac)WQC[Yde][2Nal][αMeL]ENN-NH2
modifications: lactam N-10; disulfide 2-6; also: Cys2 carboxyl bonded to Lys3 epsilon-NH2 (isopeptide), Lys3 alpha-N acetylated
- pSTAT3 (nM) [1]: 4.11 nM
- IC50 [2]: 0.39 nM

B4: Compound of SEQ ID NO: 7 (peptide)
peptide: K(Ac)CNTWQC[Tyr(Me)][2Nal][Aib]DNN-NH2
modifications: lactam (positions not given here); disulfide 2-7; not fully specified (bridges); printed as K[Ac](§1)-C(@2)-N-T-W-Q-C(@2)-Yme-Nal-Aib-D(§1)-N—N—NH2; also: K1 acetylated, whether acetyl is on alpha-N or epsilon-N (lactam via the other amine) not settled
notes: §1 lactam bridge; @2 disulfide bridge
- pSTAT3 (nM) [1]: 25 nM
- IC50 [2]: 0.6 nM

Continued by falling IC50 [2], values first:

- IC50 [2]: 163 nM
Binder: XXNTWQXXXXENN (not fully specified; Apt(§1)-Pen(@2)-N-T-W-Q-Pen(@2)-Yae-Nal-Thp-E(§1)-N-N-NH2) [Pen peptide compound of SEQ ID NO: 163]

- pSTAT3 (nM) [1]: 0.34 nM
- IC50 [2]: 0.34 nM
B2: Compound of SEQ ID NO: 35 (peptide)
peptide: [Ava]CNT[Trp(7-Me)]K(Ac)C[Yde][2Nal][Thp]EN[3Pal][Sar]-NH2
modifications: lactam N-11; disulfide 2-7
SMILES: CC(=O)NCCCC[C@@H]1NC(=O)[C@H](Cc2c[nH]c3c(C)cccc23)NC(=O)[C@H]([C@@H](C)O)NC(=O)[C@H](CC(N)=O)NC(=O)[C@@H]2CSSC[C@H](NC1=O)C(=O)N[C@@H](Cc1ccc(OCCN(C)C)cc1)C(=O)N[C@@H](Cc1ccc3ccccc3c1)C(=O)NC1(CCOCC1)C(=O)N[C@H](C(=O)N[C@@H](CC(N)=O)C(=O)N[C@@H](Cc1cccnc1)C(=O)N(C)CC(N)=O)CCC(=O)NCCCCC(=O)N2
